Laboratory results published in the supplement of paper PMC12067230.
± gives the uncertainty stated by the source.

B1: S-29-H; numbered along this chain (parent)
chain: EASNCFAIRHFENKFAVETLICFNLFLNSQEKHY

Variants of: B1
Assay: amyloid nucleation score relative to WT ADan (yeast Sup35 reporter selection) (log enrichment difference); higher = more amyloid nucleation
Description: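 Deep mutational scan of the ADan peptide fused to the Sup35 nucleation domain (SupN) in S. cerevisiae [psi-pin-], covering all single amino-acid substitutions and stop truncations (truncations = sequence up to the stop). After 24 h Cu2+ induction, cells were selected on -ADE-URA plates for 7 d at 30 °C. The nucleation score is log enrichment (output/input, deep sequencing) minus that of WT ADan, as the error-weighted mean of 3 biological replicates (DiMSum).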
With EASNCFAIRHFENKFAVETLICFNLFLNHQEKHY the amyloid nucleation score was -0.577 ± 0.18.
With EASNCFAIRHFENKFAVETLICFNLFLNTQEKHY the amyloid nucleation score was 0.043 ± 0.12.
Work on EASNCFAIRHFENKFAVETLICFNLFLNKQEKHY yielded an amyloid nucleation score of 0.205 ± 0.13.
Work on EASNCFAIRHFENKFAVETLICFNLFLNLQEKHY yielded an amyloid nucleation score of -0.878 ± 0.081.
Work on EASNCFAIRHFENKFAVETLICFNLFLNRQEKHY yielded an amyloid nucleation score of -1.08 ± 0.082.
Work on EASNCFAIRHFENKFAVETLICFNLFLNIQEKHY yielded an amyloid nucleation score of -1.29 ± 0.13.
Work on EASNCFAIRHFENKFAVETLICFNLFLNNQEKHY yielded an amyloid nucleation score of 0.0767 ± 0.12.
For EASNCFAIRHFENKFAVETLICFNLFLNPQEKHY, the amyloid nucleation score was -0.168 ± 0.14.
Work on EASNCFAIRHFENKFAVETLICFNLFLNGQEKHY yielded an amyloid nucleation score of -0.16 ± 0.079.
EASNCFAIRHFENKFAVETLICFNLFLNWQEKHY showed an amyloid nucleation score of -1.86 ± 0.15.
For EASNCFAIRHFENKFAVETLICFNLFLNVQEKHY, the amyloid nucleation score was -0.294 ± 0.084.
EASNCFAIRHFENKFAVETLICFNLFLNAQEKHY showed an amyloid nucleation score of -0.27 ± 0.11.
Work on EASNCFAIRHFENKFAVETLICFNLFLNYQEKHY yielded an amyloid nucleation score of -1.65 ± 0.17.
In the case of EASNCFAIRHFENKFAVETLICFNLFLNFQEKHY, the amyloid nucleation score is reported as -1.68 ± 0.16.
Work on EASNCFAIRHFENKFAVETLICFNLFLNQQEKHY yielded an amyloid nucleation score of 0.312 ± 0.16.
In the case of EASNCFAIRHFENKFAVETLICFNLFLNCQEKHY, the amyloid nucleation score is reported as -0.0428 ± 0.11.
With EASNCFAIRHFENKFAVETLICFNLFLNMQEKHY the amyloid nucleation score was -0.489 ± 0.13.
EASNCFAIRHFENKFAVETLICFNLFLNDQEKHY gave an amyloid nucleation score of 0.326 ± 0.14.
With EASNCFAIRHFENKFAVETLICFNLFLNEQEKHY the amyloid nucleation score was 0.219 ± 0.14.
Variant EASNCFAIRHFENKFAVETLICFNLFHNSQEKHY has an amyloid nucleation score of 0.303 ± 0.18.
With EASNCFAIRHFENKFAVETLICFNLFSNSQEKHY the amyloid nucleation score was 0.669 ± 0.082.
EASNCFAIRHFENKFAVETLICFNLFFNSQEKHY gave an amyloid nucleation score of -0.518 ± 0.12.
EASNCFAIRHFENKFAVETLICFNLFGNSQEKHY showed an amyloid nucleation score of 0.726 ± 0.075.
Work on EASNCFAIRHFENKFAVETLICFNLFANSQEKHY yielded an amyloid nucleation score of -0.084 ± 0.11.
With EASNCFAIRHFENKFAVETLICFNLFCNSQEKHY the amyloid nucleation score was 0.66 ± 0.12.
With EASNCFAIRHFENKFAVETLICFNLFNNSQEKHY the amyloid nucleation score was 0.524 ± 0.13.
Work on EASNCFAIRHFENKFAVETLICFNLFKNSQEKHY yielded an amyloid nucleation score of -0.947 ± 0.16.
EASNCFAIRHFENKFAVETLICFNLFWNSQEKHY showed an amyloid nucleation score of 0.0695 ± 0.11.
For EASNCFAIRHFENKFAVETLICFNLFPNSQEKHY, the amyloid nucleation score was 0.545 ± 0.17.
For EASNCFAIRHFENKFAVETLICFNLFQNSQEKHY, the amyloid nucleation score was 0.391 ± 0.15.
EASNCFAIRHFENKFAVETLICFNLFYNSQEKHY gave an amyloid nucleation score of 0.163 ± 0.13.
With EASNCFAIRHFENKFAVETLICFNLFINSQEKHY the amyloid nucleation score was 0.00956 ± 0.13.
With EASNCFAIRHFENKFAVETLICFNLFVNSQEKHY the amyloid nucleation score was 0.187 ± 0.079.
With EASNCFAIRHFENKFAVETLICFNLFRNSQEKHY the amyloid nucleation score was -1.01 ± 0.091.
Variant EASNCFAIRHFENKFAVETLICFNLFDNSQEKHY has an amyloid nucleation score of 0.457 ± 0.13.
In the case of EASNCFAIRHFENKFAVETLICFNLFTNSQEKHY, the amyloid nucleation score is reported as 0.731 ± 0.12.
For EASNCFAIRHFENKFAVETLICFNLFENSQEKHY, the amyloid nucleation score was 0.567 ± 0.12.
In the case of EASNCFAIRHFENKFAVETLICFNLFMNSQEKHY, the amyloid nucleation score is reported as 0.15 ± 0.13.
In the case of EASNCFAIRHFENKFAVETLICFNLFLNSQEVHY, the amyloid nucleation score is reported as -0.601 ± 0.097.
With EASNCFAIRHFENKFAVETLICFNLFLNSQENHY the amyloid nucleation score was 0.686 ± 0.14.
In the case of EASNCFAIRHFENKFAVETLICFNLFLNSQELHY, the amyloid nucleation score is reported as -0.598 ± 0.098.
EASNCFAIRHFENKFAVETLICFNLFLNSQEAHY showed an amyloid nucleation score of 0.179 ± 0.12.
For EASNCFAIRHFENKFAVETLICFNLFLNSQEGHY, the amyloid nucleation score was 0.113 ± 0.081.
EASNCFAIRHFENKFAVETLICFNLFLNSQEEHY gave an amyloid nucleation score of 0.78 ± 0.13.
EASNCFAIRHFENKFAVETLICFNLFLNSQEHHY showed an amyloid nucleation score of 0.279 ± 0.17.
Variant EASNCFAIRHFENKFAVETLICFNLFLNSQEIHY has an amyloid nucleation score of -1.31 ± 0.18.
With EASNCFAIRHFENKFAVETLICFNLFLNSQEFHY the amyloid nucleation score was -0.726 ± 0.15.
EASNCFAIRHFENKFAVETLICFNLFLNSQEQHY gave an amyloid nucleation score of 0.041 ± 0.16.
Work on EASNCFAIRHFENKFAVETLICFNLFLNSQERHY yielded an amyloid nucleation score of -0.086 ± 0.083.
For EASNCFAIRHFENKFAVETLICFNLFLNSQEMHY, the amyloid nucleation score was -0.157 ± 0.14.
In the case of EASNCFAIRHFENKFAVETLICFNLFLNSQEPHY, the amyloid nucleation score is reported as 0.00117 ± 0.17.
EASNCFAIRHFENKFAVETLICFNLFLNSQECHY showed an amyloid nucleation score of -0.144 ± 0.13.
With EASNCFAIRHFENKFAVETLICFNLFLNSQESHY the amyloid nucleation score was 0.198 ± 0.091.
In the case of EASNCFAIRHFENKFAVETLICFNLFLNSQEWHY, the amyloid nucleation score is reported as -0.739 ± 0.13.
For EASNCFAIRHFENKFAVETLICFNLFLNSQETHY, the amyloid nucleation score was 0.234 ± 0.13.
EASNCFAIRHFENKFAVETLICFNLFLNSQEDHY gave an amyloid nucleation score of 0.768 ± 0.14.
For EASNCFAIRHFENKFAVETLICFNLFLNSQEYHY, the amyloid nucleation score was -0.0344 ± 0.16.
With EASNCFAIRHFENKFAVETLICFNLFLNSQNKHY the amyloid nucleation score was -0.844 ± 0.19.
In the case of EASNCFAIRHFENKFAVETLICFNLFLNSQMKHY, the amyloid nucleation score is reported as -3.06 ± 0.36.
In the case of EASNCFAIRHFENKFAVETLICFNLFLNSQYKHY, the amyloid nucleation score is reported as -2.5 ± 0.28.
With EASNCFAIRHFENKFAVETLICFNLFLNSQCKHY the amyloid nucleation score was -2.07 ± 0.2.
EASNCFAIRHFENKFAVETLICFNLFLNSQDKHY gave an amyloid nucleation score of -0.000529 ± 0.15.
With EASNCFAIRHFENKFAVETLICFNLFLNSQTKHY the amyloid nucleation score was -1.22 ± 0.17.
Variant EASNCFAIRHFENKFAVETLICFNLFLNSQRKHY has an amyloid nucleation score of -2.51 ± 0.16.
In the case of EASNCFAIRHFENKFAVETLICFNLFLNSQSKHY, the amyloid nucleation score is reported as -0.961 ± 0.12.
EASNCFAIRHFENKFAVETLICFNLFLNSQAKHY gave an amyloid nucleation score of -1.39 ± 0.15.
EASNCFAIRHFENKFAVETLICFNLFLNSQGKHY showed an amyloid nucleation score of -0.564 ± 0.087.
EASNCFAIRHFENKFAVETLICFNLFLNSQFKHY showed an amyloid nucleation score of -5.7 ± 0.96.
EASNCFAIRHFENKFAVETLICFNLFLNSQLKHY showed an amyloid nucleation score of -3.31 ± 0.34.
For EASNCFAIRHFENKFAVETLICFNLFLNSQPKHY, the amyloid nucleation score was -0.569 ± 0.2.
Work on EASNCFAIRHFENKFAVETLICFNLFLNSQQKHY yielded an amyloid nucleation score of -0.871 ± 0.2.
